Key:
human CLDN6 [1] = molecular target: T1, human CLDN6 (human, UniProt P56747 1-220); test: FACS on HepG2 tumour cells, 5 µg/mL; target on the cells taken as CLDN6
T1 construct: whole, on cells; four-transmembrane protein; also called claudin-6; HEK293T-CLDN6
T1 sequence (looked up): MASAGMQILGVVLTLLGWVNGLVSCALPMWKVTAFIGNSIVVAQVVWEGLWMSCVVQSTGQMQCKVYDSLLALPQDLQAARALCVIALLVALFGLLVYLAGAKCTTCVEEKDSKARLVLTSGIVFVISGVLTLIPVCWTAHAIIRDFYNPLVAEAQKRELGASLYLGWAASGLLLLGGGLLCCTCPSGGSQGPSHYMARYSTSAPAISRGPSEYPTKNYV
Method: (§1) 50 μL of an antibody to be tested was added to a 96-well plate, then 1×10⁵ cells were added to each well, and incubation was conducted at 4° C. for 1 h. Cells were washed three times with PBS. […] Finally, cells were washed three times with PBS, and signals were read using FACS. A binding capacity of the antibody to each tumor cell was analyzed based on detection data.

human CLDN6 [2] = molecular target: T1, human CLDN6; test: FACS on HEK293T-CLDN6 cells
Method: (§2) To detect a binding capacity of a chimeric or humanized antibody to CLDN6, a CLDN6-expressing cell line HEK293T-CLDN6 and a CLDN6-negative control cell line HEK293T were washed three times with PBS. 1×10⁵ test cells and 50 μL of an antibody solution to be tested were added to a 96-well plate, and incubated at 4° C. for 1 h. The cells were then washed three times with PBS. […] Finally, cells were washed three times with PBS, and signals were read using FACS.
(§3) An EC50 value (a concentration of an antibody that binds to half of binding sites at equilibrium) is calculated through nonlinear regression.

human CLDN6 [3] = molecular target: T1, human CLDN6; test: FACS on HepG2 tumour cells; target on the cells taken as CLDN6
Method: as §1

human CLDN6 [4] = molecular target: T1, human CLDN6; test: FACS on HEK293T-CLDN6 cells; remark: listed apart in the source
Method: as §2, §3

human CLDN6 [5] = molecular target: T1, human CLDN6; test: FACS on HEK293T-CLDN6 cells; remark: listed apart in the source
human CLDN6 [6] = molecular target: T1, human CLDN6; test: FACS on PA-1 tumour cells; target on the cells taken as CLDN6
Method: as §1

human CLDN6 [7] = molecular target: T1, human CLDN6; test: FACS on 293T-CLDN6 cells, 10 µg/mL
human CLDN6 [8] = molecular target: T1, human CLDN6; test: FACS on HEK293T-CLDN6 cells; remark: listed apart in the source
Method: as §2, §3

human CLDN6 [9] = molecular target: T1, human CLDN6; test: FACS on HepG2 tumour cells; target on the cells taken as CLDN6; remark: listed apart in the source
Method: The specific binding of a chimeric antibody to a tumor cell was detected by FACS, and an EC50 value was calculated accordingly to evaluate an inhibitory effect of the chimeric antibody on the tumor cell.
as §1

human CLDN9 = molecular target: T2, human CLDN9 (human, UniProt O95484 1-217); test: FACS on 293T-CLDN9 cells, 10 µg/mL
T2 construct: whole, on cells; also called HEK293T-CLDN9
T2 sequence (looked up): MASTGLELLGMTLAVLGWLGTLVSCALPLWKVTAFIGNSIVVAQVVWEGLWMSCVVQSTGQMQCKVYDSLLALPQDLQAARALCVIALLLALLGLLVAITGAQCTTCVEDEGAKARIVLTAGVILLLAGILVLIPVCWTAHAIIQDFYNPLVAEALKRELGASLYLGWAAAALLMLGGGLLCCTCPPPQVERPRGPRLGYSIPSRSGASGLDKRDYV
Method: as §1, with “1× 10⁵” for “1×10⁵”, “Binding capacities” for “A binding capacity”, “CLDN9, CLDN3, and CLDN4 were” for “each tumor cell was”, “analyzed separately” for “analyzed”

Geom.Mean (human CLDN6 [1]): 970 | EC50 (human CLDN6 [2]): 0.0461 µg/mL | EC50 (human CLDN6 [3]): 0.959 µg/mL | EC50 (human CLDN6 [4]): 0.213 µg/mL | EC50 (human CLDN6 [5]): 0.0469 µg/mL | EC50 (human CLDN6 [6]): 0.141 µg/mL | Geom.Mean (human CLDN6 [7]): 23600 | EC50 (human CLDN6 [8]): 0.0727 µg/mL | EC50 (human CLDN6 [9]): 0.192 µg/mL | Geom.Mean (human CLDN9): 985
B1: IMAB027 (antibody, human IgG1, kappa, V domains shown)
VH: EVQLQQSGPELVKPGASMKISCKASGYSFTGYTMNWVKQSHGKNLEWIGLINPYNGGTIYNQKFKGKATLTVDKSSSTAYMELLSLTSEDSAVYYCARDYGFVLDYWGQGTTLTVSS
VL: IVLTQSPAIMSASPGEKVTITCSASSSVSYLHWFQQKPGTSPKLWVYSTSNLPSGVPARFGGSGSGTSYSLTISRMEAEDAATYYCQQRSIYPPWTFGGGTKLEIKR
notes: variable regions of mAb206-LCC on human IgG1 constant regions; also called benchmark antibody; control antibody
